From the domain aggregation screens of Martell et al. (2025) come the findings set out here.

This data set is described as follows: soluble fraction after stress (log2 fold change); higher = more stays soluble; pooled small domains, quantitative proteomics. As to conditions: stress: pH 4. The gist of the method: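 Custom libraries of small protein domains were pooled and exposed to pH 4. High-throughput quantitative proteomics then measured the log2 fold change in the amount of each domain still soluble, with higher values meaning more stayed soluble. This soluble-fraction fold change stands for aggregation propensity.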
For the sequence “HMDAYDEVTTLSQMVASGKNTTVAHLKHLKEYHQTDYLRQAVEWLLSNRKNVSFSVDEVMQEVHN”, the “soluble fraction (log2)” value is -0.434.
Consider “HMDAYLPETVQKLLDVMDFDVPYSAAQLMEKLGLKSRASFRKLYLLPALEKNLIAMGVPDKPTSRNQTYIR”, for which the “soluble fraction (log2)” value stood at 0.169.
To “HMDAYSYFIRTYPLVDDPLIGDIRRIFAETHDGNPAGDADVRHILWRLLFERELYPTLDEATADWY” belongs -1.86.
To “HMDDEAVQIMTLHISKGLEFDVVFALGLVSRTPESKEIEELEAEKQRQLYVAMTRAEKWLIVAA” belongs 0.22.
“HMDDEDLAFLQREFVSYQQAMDYYGLGYKPVVRLSHISGSVYKIGKKVLIRRNIFEEYLRNHV”: the “soluble fraction (log2)” value was -0.666.
Turning to “HMDDFGERLRKLRVAQDLTQQQLGEKLGVVPSTIGKYEKVKDSYPSIEVLIKLSDFFSVSTDYLLKG”, the “soluble fraction (log2)” value is -0.905.
Take “HMDDFTEVLLQYLKDHDGYSSIHDKTDAETIYNTFGVSKKTFKKAVGDLYKKRLIVLEEEGIRLLG”: the “soluble fraction (log2)” value was -0.586.
Consider “HMDDISLEEIKYISSKLETKVNEIEELLVRYYDGETNEAEEKELKEFFAQADVPAHLLAEKRLFMQLASQ”, for which the “soluble fraction (log2)” value was -0.324.
To “HMDDKVGKVFNYVQEKILTGEWDIGDKITPEISLSKELGVSRSVVREAIKKFVALNILSRTQGGGTYVNNL” belongs -0.621.
The same measure for “HMDDNMNEQWKMILNSIAKKGSVTRQETEKILGIGQTRAHVLLKAMIHAGMIKAVGDGKKRRYVR”: at least 0.43; for “HMDDNRSLSDLAQQVFKRENIQVSRDTLSLLVSRLGSDRAVSRQEIEKLALFAGSNGKLTEEDIHNALG”: -0.195; for “HMDDPISSMVNRIRLAFGLSVTDLAAVLGVERPTIYSWLKDGSTPAPARLTRVRQVLSLADTW”: at least 0.43.
The same measure for “HMDDPITVAYRETEDAIAQVQREGFPVEMPPANSYIRRIQHELAGRFNLDSESYGDEPERRVRIRPQQ”: -0.92.
In the case of “HMDDPTVILFDPKNGQRKIVKWKAGLTLYSARRSAGISSAAEATIQRAGKSLSGRTATALEPGDVIRW”, the “soluble fraction (log2)” value was determined as 0.203.
To “HMDDSSLFGRHTGIGFIVDDIDSGYQTLLAKGVSFEMPPTEQPWGGILALMKDPDGNIFYLD” belongs -0.488; to “HMDDTRLLSEIGLSQRVLNALRARGIERVGQVLAMRPDQLLGIRNFGPRALQELRERLQENGYTEGPLFSG”, -0.252; to “HMDDVIDVYATYDVSPTNQISNIKLYSDAAHANPVTGEAGKSYNDITEGHPGYQFRWSGTTWVPI”, 0.0332.
With “HMDDVIEVEGKVVEVLPNTKFIVELANSHKITAHISGKLRMNYIRIMKGDNVTVEMSPYDLTKGRIIWRS”, the “soluble fraction (log2)” value is -0.167.
To “HMDDVVVLPFTAEFARMSSDDFVREILVGKIGMKRFVVGYNHRFGSGQQGDFASLQRMQGELGFVAVRVG” belongs -0.479.
To “HMDDVYMVPVKDIAINDLKQEFEKLGIPNIQNTIPDKDLNFFIVRKDDLALVNYAIEKTMER” belongs -0.523; to “HMDEAETELIRRMVSEHPPTTKRERDIVQMRLRGYLFVEIGEAYGISFQRAAQIYNAAVEKIKEYWD”, -0.454.
To “HMDEEQIASRRALIMRAAREIMETQGMEALSIRKIAAMIQQTPGIIYHYFSGKEELMLAVVQEGYH” belongs -0.219; to “HMDEFAGSAKPLADGAAPAGYDVKGNKDSMKYHEPGGRWYDATVAEVWFKTAADAEAAGFVKAGA”, -0.266; to “HMDEFHLSERERQILNLLVLGHTYKHIASDLNIAYATVNKHVSNVYAKLRVQSASEAVALAIRKGL”, -0.58.
Turning to “HMDEFTIILEDAGSQKIAVIKEVRVLNSSLGLKEAKDLVDATPATIMEKADKATADKAKAAFEAAGAKVTI”, the “soluble fraction (log2)” value is -0.75.
On to “HMDEIDYSKYSITTSNRIINIDGVQSKVELFDVSGRSIQSTMVTGKFSSRPLNAGFYIIHVDGYSVKVSV”, for which the “soluble fraction (log2)” value was -1.19.
The same measure for “HMDELIKQVANYIINNRATINETAGAFGKSVSSIKKYINDADKLQRIDFELYQKVKEVQKIVELNGQI”: -0.269; for “HMDEMEFQKYVDQNLKQKGISLTAEAKAELLLRLGGDTMLLHSAIEKLDLYGEKNLNLNDIKHLVSLNSDV”: 0.0232; for “HMDENMQRYNTMEEIKKEFPYAEDTVRKLIAMGAIRGGGKVDANGDPADMDLSRDMLRMMVFNDRAGAYG”: -0.761.
The same measure for “HMDEPGTGFKWREDVLLRVMEANGIDTSHRDDFVRHAVKFDNDDNLYLKKAEIEDAAAAWVSEHS”: -1.59; for “HMDERLAKLTPQERKILDLIAEGATNRQIGTELHLAEKTVKNYVSNMLMKLGMSRRTEAAVFAVKASIN”: at least 0.43; for “HMDERLLRLYERELQFLREGADEFAQAYPKVAGHLGLNSQSMGDPFIERLLEGLGFLTARIQLQLESEF”: -0.823.
Take “HMDEWFPVNDDYKFMVGDEVRTPDGLVKVVATHNDSATFYGKIITPIHDDVLKGETYEYRSYEAQVLA”: the “soluble fraction (log2)” value is -1.26.
To “HMDEWKRKELWDAIARLPKIQRMVVTMRTTENLPYKEIAKIMNISENSAKVNYHHAVEALKIFF” belongs 0.0454.
